Reference: US20220241406A1

Molecular target: IgE antibodies of four Pru p 7 reactive human sera
Test: ImmunoCAP IgE inhibition, inhibitor at 20 ug/mL in solution, rPru p 7 on solid phase, against dilution buffer control

percent inhibition of IgE binding to rPru p 7 (fourth serum): 80%
B1: recombinant Cup s GRPb (protein)
chain: AQIDCDKECNRRCSKASLHDRCLKYCGICCEKCHCVPPGTAGNEDVCPCYAHLKNSKGGHKCP
